Data published in publication PMC10085699.
Residue numbers refer to the chain shown, from its start.

Experiments:
Test in all cases: EMSA
[1] = target: T1, SETX-HD-R/H (Homo sapiens, UniProt Q7Z333 1674-2677, R2136H)
T1 sequence: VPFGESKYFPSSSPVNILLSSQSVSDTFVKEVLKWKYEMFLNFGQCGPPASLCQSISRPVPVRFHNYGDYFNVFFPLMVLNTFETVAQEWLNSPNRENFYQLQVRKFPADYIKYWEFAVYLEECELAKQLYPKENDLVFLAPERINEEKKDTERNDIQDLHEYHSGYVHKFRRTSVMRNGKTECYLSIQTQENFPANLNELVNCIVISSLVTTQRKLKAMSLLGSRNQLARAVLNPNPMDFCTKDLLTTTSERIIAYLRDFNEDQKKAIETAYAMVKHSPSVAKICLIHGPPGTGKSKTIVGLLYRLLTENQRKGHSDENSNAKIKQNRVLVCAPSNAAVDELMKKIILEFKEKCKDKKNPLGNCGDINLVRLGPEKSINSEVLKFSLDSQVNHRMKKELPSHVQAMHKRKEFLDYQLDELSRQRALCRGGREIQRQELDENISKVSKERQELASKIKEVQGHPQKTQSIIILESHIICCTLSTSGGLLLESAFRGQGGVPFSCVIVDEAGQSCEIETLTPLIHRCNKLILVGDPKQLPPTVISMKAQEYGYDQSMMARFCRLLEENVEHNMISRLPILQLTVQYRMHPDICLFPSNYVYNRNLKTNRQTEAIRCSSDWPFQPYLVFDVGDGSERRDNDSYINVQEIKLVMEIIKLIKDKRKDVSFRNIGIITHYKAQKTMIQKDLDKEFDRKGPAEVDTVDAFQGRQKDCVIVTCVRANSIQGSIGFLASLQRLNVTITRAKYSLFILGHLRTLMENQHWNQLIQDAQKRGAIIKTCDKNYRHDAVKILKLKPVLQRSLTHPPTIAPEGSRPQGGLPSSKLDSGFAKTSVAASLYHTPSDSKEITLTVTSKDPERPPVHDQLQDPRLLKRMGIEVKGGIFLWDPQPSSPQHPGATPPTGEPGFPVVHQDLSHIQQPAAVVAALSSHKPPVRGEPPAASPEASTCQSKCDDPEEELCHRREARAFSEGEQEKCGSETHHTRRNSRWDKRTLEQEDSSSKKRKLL

[2] = target: T2, SETX-HD-DE/AA (Homo sapiens, UniProt Q7Z333 1674-2677, D2181A;E2182A)
T2 sequence: T1 sequence with H463R, D508A, E509A

[3] = target: T3, Sen1-HD (UniProt Q00416 1095-1904)
T3 sequence: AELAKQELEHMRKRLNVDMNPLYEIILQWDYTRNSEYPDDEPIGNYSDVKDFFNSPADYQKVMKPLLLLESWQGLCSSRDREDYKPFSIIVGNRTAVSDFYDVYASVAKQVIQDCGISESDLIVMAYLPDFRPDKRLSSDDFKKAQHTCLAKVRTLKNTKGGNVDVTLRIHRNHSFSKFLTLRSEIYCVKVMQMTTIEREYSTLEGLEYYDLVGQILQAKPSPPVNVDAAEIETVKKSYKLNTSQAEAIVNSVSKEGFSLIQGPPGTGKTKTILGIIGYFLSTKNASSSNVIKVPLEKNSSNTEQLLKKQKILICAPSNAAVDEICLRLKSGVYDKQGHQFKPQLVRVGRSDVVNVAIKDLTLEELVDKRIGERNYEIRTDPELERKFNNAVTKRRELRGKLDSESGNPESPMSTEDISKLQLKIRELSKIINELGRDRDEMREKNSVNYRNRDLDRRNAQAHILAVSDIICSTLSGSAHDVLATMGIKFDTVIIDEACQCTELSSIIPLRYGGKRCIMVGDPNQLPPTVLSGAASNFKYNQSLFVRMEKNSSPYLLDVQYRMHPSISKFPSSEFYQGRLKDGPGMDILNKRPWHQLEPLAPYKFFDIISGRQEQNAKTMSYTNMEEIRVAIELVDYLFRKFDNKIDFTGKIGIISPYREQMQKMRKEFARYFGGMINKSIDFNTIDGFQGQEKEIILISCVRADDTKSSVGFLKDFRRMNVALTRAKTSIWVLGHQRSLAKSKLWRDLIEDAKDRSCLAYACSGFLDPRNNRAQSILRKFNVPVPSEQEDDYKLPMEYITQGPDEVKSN

Measured: binding result

B1: ssDNA pRMS679 (61 nt) (ssDNA)
DNA: TTGTCTTCTCATAAATTTAATCCCCGTACGCTTATACTCCTTTAACTACCCAGTCTTCCCG
binds: [1] | [2] | [3]
